Key:
[1] = test system: Panc1 cells; experiment: Panc1 cell migration and invasion after rhDKK3; type: cell-based, human; settings: Panc1, 10 μg/mL, 24 hours
Experimental: FIGS. 2A-J. DKK3 stimulates HPSC and PDAC activity and increases chemoresistance. (FIG. 2A) HPSC proliferation was measured by MTT after treatment with PBS or rhDKK3 (10 μg/ml). DKK3 was silenced in HPSCs by shDKK3 (FIG. 2B) and cell proliferation was measured by MTT assay (FIG. 2B) and migration was determined at 24 hours (FIG. 2C). Control cells were transfected with scrambled shRNA. (FIG. 2D) Panc1 cells were treated with rhDKK3 (10 μg/ml) or serum-free media control, and cell migration and invasion were measured after 24 hours. (FIGS. 2E-F) Panc1 cells were stably silenced for DKK3 and cell proliferation (FIG. 2E) and colony formation in soft agar (FIG. 2F) were measured. (FIG. 2G) BxPC3 cell migration was measured after treatment with CM from HPSCs or HPSCs silenced for DKK3. Soft agar colony formation (FIG. 2H) in gemcitabine and apoptosis (FIG. 2I) was determined in chemosensitive L3.6p1 cells expressing DKK3 compared with transfection controls. (FIG. 2J) Gemcitabine-induced apoptosis was measured in chemoresistant HS766T cells silenced for DKK3. *p<0.01, **p<0.001, ***p<0.0001, ****p<0.00001.
(§1) Cell-based assays. Cell proliferation was measured by the MTS assay (Promega, Madison, Wis.). […]

[2] = test system: NF-κB; experiment: NF-κB luciferase reporter assay in Panc28; type: cell-based, human; settings: parental Panc28 cells
Experimental: FIGS. 3A-F. NF-κB is activated in PSCs and PDAC cells by DKK3 and is necessary for DKK3-mediated stimulation of cell activity. (FIG. 3A) Phosphorylation of p65 and IκBα induced by DKK3 treatment (10 μg/ml) was determined by Western blotting. Relative protein loading was shown by using anti-β-actin antibody. (FIG. 3B) Time course of p65 activation by WB in HPSC and Panc1 cells. Cells were treated with recombinant DKK3 (10 μg/ml) for 0-24 h and change in band density relative to baseline were quantified. (FIG. 3C) DKK3 stimulates NFκB luciferase reporter in HPSC & PDAC cells, with mutant luc reporter (MT). NFκB activity induced by DKK3 was measured in Panc28 with phosphorylation-defective IκBαM by luciferase reporter (FIG. 3D) and Western blotting (FIG. 3E). For FIGS. 3C&D, in each set of three columns, the left is “PBS,” the middle is “DKK3,” and the right is “TNFα.” (FIG. 3F) Proliferation of Panc28 and Panc28/IκBαM was measured by MTT assay. *p<0.05, **p<0.01, ***p<0.001 and ****p<0.0001 vs. PBS control.
NF-κB activity. NF-κB activity was determined by using a luciferase reporter assay. […] Luciferase signal was detected by using D-luciferin firefly potassium salt (Caliper Life Sciences, Hopkinton, Mass.) and the IVIS® imaging system (Xenogen Corp., Alameda, Calif.). […]

[3] = test system: CD3+ T cells; experiment: T cell division assay (CFSE); type: cell-based, human; settings: stimulated CD3+ T cells, DKK3 5-10 μg/mL
Experimental: FIGS. 6A-F. DKK3 blockade is associated with increased tumor immune infiltrates and improves response to checkpoint inhibitor therapy. (FIG. 6A) T cells were stimulated, treated with DKK3 (5-10 μg/mL) and proliferation was measured by CFSE assay. In a syngeneic orthotopic model with luciferase-labeled KPC cells, tumors were examined for CD3 and CD8 expression by IHC (FIG. 6B) and additional markers of T cell activity were measured by quantitative PCR (FIG. 6C). Mice in this model were treated with either control IgG, DKK3 mAb JM6-6-1, αCTLA4 or the combination JM6-6-1+αCTLA4 and tumor growth was measured by IVIS imaging to 25 and 190 days (FIG. 6D). Survival in this orthotopic implantation model is shown in (FIG. 6E). Using a GEMM (FIG. 6F), KPC/DKK3^+/+ (black line) or KPC/DKK3^−/− (blue line) mice were treated with αCTLA4 or control IgG and the Kaplan Meier survival curve is shown. *p<0.05, **p<0.01, ***p<0.001.
T cell division assay. Peripheral blood mononuclear cells (PBMC) were obtained from buffy coat by density centrifugation using Histopaque 1077 (Sigma) and CD3^+ T-cells were isolated using a pan T-cell isolation kit (Miltenyi Biotec). […] DKK3 or HPSC-CM was added and after 96 hours, cells were stained for CD3, CD4, and CD8 to define lineage and analyzed by flow cytometry. […]

[4] = target: T1, recombinant human DKK3 (human, UniProt Q9UBP4 22-350); experiment: non-denaturing Western blot of recombinant protein
T1 construct: Bought recombinant protein (R&D); also called rhDKK3; recombinant human DKK-3/His

[5] = target: T2, recombinant mouse DKK3 (mouse, UniProt Q9QUN9 23-349, limits assumed); experiment: non-denaturing Western blot of recombinant protein
T2 construct: also called murine DKK3

[6] = test system: BxPC3 cells; experiment: BxPC3 Transwell migration in response to rhDKK3; type: cell-based, human; settings: BxPC3, rhDKK3 10 μg/ml, 48 hours
Experimental: (§2) HPSCs and BxPC3 cells were treated with DKK3 mAb clones JM6-6-1 and JM8-12-1 or isotype control mAb or PBS. (FIGS. 5A-B) HPSC apoptosis and migration as measured by FACS and Transwell migration assay at 48 hours. (FIG. 5C) BxPC3 migration in response to rhDKK3 10 μg/ml as measured by Transwell migration assay at 48 hours. (FIG. 5D) BxPC3 resistance to gemcitabine 100 μM as measured by MTS proliferation assay at 6 days. HPSC-CM, pancreatic stellate cell conditioned media, 10 μg/ml. The orthotopic co-injection BxPC3+ HPSC model of PDAC was used to test the efficacy of DKK3 mAb clones JM6-6-1 or JM8-12-1 (5 mg/kg i.p. once every 5 days). (FIG. 5E) Overall tumor progression was measured every 3-4 days by IVIS imaging. (FIG. 5F) Metastatic tumors in the peritoneal cavity after removal of the primary pancreatic tumor are shown by IVIS imaging. (FIG. 5G) Kaplan Meier survival curve showing mice treated with DKK3 mAb clone JM8-12 (right-most line), control mAb (middle line), or PBS (left-most line). (FIG. 5H) KPC mice (P48-Cre; Kras LSL-G12D;Trp53fl/fl) with either wild type DKK3 (solid lines) or deficient in DKK3 (“DKK3-KO,” dashed lines) were treated with DKK3 mAb JM6-6-1 (5 mg/kg i.p. once every 5 days), PBS or control mAb. […]
as §1

[7] = test system: BxPC3 cells; experiment: BxPC3 resistance to gemcitabine, MTS proliferation assay; type: cell-based, human; settings: BxPC3, gemcitabine 100 μM, HPSC-CM 10 μg/ml, 6 days
Experimental: as §2, §1

[8] = test system: BxPC3 + HPSC orthotopic tumors; experiment: Orthotopic co-injection BxPC3 + HPSC nude mouse model of PDAC; type: in vivo; settings: 5 mg/kg i.p. once every 5 days
Experimental: HPSCs and BxPC3 cells were treated with DKK3 mAb clones JM6-6-1 and JM8-12-1 or isotype control mAb or PBS. (FIGS. 5A-B) HPSC apoptosis and migration as measured by FACS and Transwell migration assay at 48 hours. (FIG. 5C) BxPC3 migration in response to rhDKK3 10 μg/ml as measured by Transwell migration assay at 48 hours. (FIG. 5D) BxPC3 resistance to gemcitabine 100 μM as measured by MTS proliferation assay at 6 days. HPSC-CM, pancreatic stellate cell conditioned media, 10 μg/ml. The orthotopic co-injection BxPC3+ HPSC model of PDAC was used to test the efficacy of DKK3 mAb clones JM6-6-1 or JM8-12-1 (5 mg/kg i.p. once every 5 days). (FIG. 5E) Overall tumor progression was measured every 3-4 days by IVIS imaging. (FIG. 5F) Metastatic tumors in the peritoneal cavity after removal of the primary pancreatic tumor are shown by IVIS imaging. (FIG. 5G) Kaplan Meier survival curve showing mice treated with DKK3 mAb clone JM8-12 (right-most line), control mAb (middle line), or PBS (left-most line). (FIG. 5H) KPC mice (P48-Cre; Kras LSL-G12D;Trp53fl/fl) with either wild type DKK3 (solid lines) or deficient in DKK3 (“DKK3-KO,” dashed lines) were treated with DKK3 mAb JM6-6-1 (5 mg/kg i.p. once every 5 days), PBS or control mAb. Kaplan Meier survival curve is shown with hazard ratios (Log-rank test). *p<0.05, **p<0.01, ***p<0.001, ****p<0.0001 vs. control Ab.
An orthotopic nude mouse model of PDAC using BxPC3 cancer cells labeled with firefly luciferase (BxPC3-FL) co-injected with HPSCs has been previously described (Hwang et al., 2008). Mice received intrapancreatic injections of BxPC3-FL (1×10^6 per mouse) with HPSC-shControl or HPSC-shDKK3 in a tumor-to-stroma ratio of 1:0 or 1:3 in 50-μL of HBSS and tumor growth was monitored using IVIS imaging (Hwang et al., 2008). In addition, a syngeneic immunocompetent DKK3 null model was used, provided by Dr. C. Niehrs (Barrantes Idel et al., 2006), that was injected with murine PDAC cells (termed “KPC cells”) isolated from tumors arising in a GEMM of PDAC (Pdx1-Cre; Kras^LSL-G12D;Trp53^R172H/+) (Hingorani et al., 2005; Hingorani et al., 2003) and labeled with luciferase.
The efficacy of DKK3 mAb was tested in vivo using the previously described orthotopic co-implantation nude mouse model of PDAC with human PSCs mixed with luciferase-labeled BxPC3 cancer cells (1:3 tumor:PSC ratio). Mice were treated with either phosphate-buffered saline (PBS), isotype control mAb, or DKK3 mAb (clone JM6-6-1; 5 mg/kg i.p. once every 5 days) and tumor growth was followed with IVIS imaging. […] Tumors in the PBS and control mAb groups grew rapidly from day 22 onward, with an 8-fold increase in the luciferase signal.

T2 sequence (Q9QUN9 23-349 limits assumed): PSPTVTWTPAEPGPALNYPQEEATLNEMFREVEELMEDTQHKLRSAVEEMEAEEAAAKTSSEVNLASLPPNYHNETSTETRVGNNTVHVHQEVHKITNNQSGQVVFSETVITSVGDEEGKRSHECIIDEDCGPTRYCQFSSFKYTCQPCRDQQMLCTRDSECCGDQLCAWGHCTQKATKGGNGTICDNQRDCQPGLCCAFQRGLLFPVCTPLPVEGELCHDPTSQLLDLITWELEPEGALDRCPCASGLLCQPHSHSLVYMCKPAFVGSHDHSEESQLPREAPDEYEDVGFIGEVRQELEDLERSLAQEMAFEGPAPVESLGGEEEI
T1 sequence (Q9UBP4 22-350 limits assumed): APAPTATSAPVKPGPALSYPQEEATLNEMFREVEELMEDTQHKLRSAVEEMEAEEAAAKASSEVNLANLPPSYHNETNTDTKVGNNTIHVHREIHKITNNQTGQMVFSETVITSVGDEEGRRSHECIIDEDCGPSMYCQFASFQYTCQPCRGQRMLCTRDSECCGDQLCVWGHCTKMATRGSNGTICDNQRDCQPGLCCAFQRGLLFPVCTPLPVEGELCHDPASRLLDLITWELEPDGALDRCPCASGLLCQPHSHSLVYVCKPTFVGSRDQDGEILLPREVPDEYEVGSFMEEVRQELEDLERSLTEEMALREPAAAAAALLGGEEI

rhDKK3: recombinant human DKK3 (R&D)
increase in invasion vs PBS controls [1]: > 3 fold | increase in migration vs PBS controls [1]: ~100% | induction of NF-κB promoter activity relative to PBS control [2]: 33% | inhibition of cell proliferation compared to media alone [3]: 4.7-11.5 fold

B1: DKK3 mAb clone JM6-6-1 (antibody, V domains shown)
VH: EVKLVESGGGLVKPGGSLKLSCAASGFTFTIEYMAWIRQTPEKRLEWVASISSGGDDIYYADNVKGRFTISRDNAKNTLYLQMSSLKSEDTAIYYCSRSLSDWGQGTTLTVSS
VL: MTQTPLSLPVSLGDQASISCRSSQSILHSNGHTYLEWYLQKPGQSPKLLIYKVSNRFSGVPDRFSGSGSGTDFTLKISRVEAEDLGVYYCFQGSHVPFTFGSGTKLEIER
notes: Mouse hybridoma mAb from A/J mice immunized with recombinant human DKK-3/His; the negative control is an IgG1 isotype control; also called anti-DKK3 mAb JM6-6-1; DKK3 antibody JM6-6-1
binding result [4]: binds | binding result [5]: binds

B2: JM8-12-1: monoclonal antibody against human DKK3; heavy chain variable SEQ ID NO: 17, light chain variable SEQ ID NO: 18 (tabled as JM8-12-2) (antibody, V domains shown)
VH: MKPSQSLSLTCTVTGYSITSDYAWNWIRQFPGNKLEWMGYISYRGSTRYNPSLKSRISITRDTSKNQLYLQLHSVTTEDTATYYCVHDGYYWVQQTLVTVSAAKTTPPSDY
VL: QDPRVDIVLTQSPASLAVSLFQRATISYRASKSVSTSGYSYMHWNQQKPGQPPRLLIYLVSNLESGVPARFSGSGSGTDFTLNIHPVEEEDAATYYCQHIRELTRSEGGPSWK
effect on DKK3-mediated induction of migration [6]: reverse the DKK3-mediated induction of migration | effect on DKK3-mediated chemoresistance to gemcitabine [7]: abrogated the DKK3-mediated induction of chemoresistance to gemcitabine | hazard ratio compared with PBS control group [8]: 0.26 | median survival [8]: 50 days
